Key:
[1] = biological target: Arp2/3 complex (untagged, yeast) (yeast (RedStar yeast cakes)) (UniProt P32381); test: SEC; Superdex 200 Increase 10/300 GL, 4 °C; 0.7 µM Arp2/3 complex and 7 µM Abp1 incubated >1 h on ice; 10 mM HEPES pH 7.0, 50 mM KCl, 1 mM EGTA, 2 mM MgCl2, 0.5 mM DTT, 0.1 mM ATP; bands of the peak fraction quantified on stain-free gels against standards
[2] = biological target: SNAP-tagged S. cerevisiae Arp2/3 complex (dye-labelled) (S. cerevisiae) (UniProt P32381); test: single-molecule TIRF colocalisation; 649-biotin-SNAP-Arp2/3 complex anchored by streptavidin; 20 nM Abp1-SNAP-549 with 200 nM unlabeled Abp1 (220 nM total); 0.25 s intervals for 120 s; double exponential fit
[3] = biological target: Arp2/3 complex (untagged, yeast) (yeast (RedStar yeast cakes)) (UniProt P32381); test: negative-stain single-particle electron microscopy; Abp1-SNAP and Arp2/3 complex at 1:1 molar ratio (100 nM each), 30 min at room temperature, uranyl formate stain; random conical tilt 3D reconstructions at 21 Å
[4] = biological target: SNAP-tagged S. cerevisiae Arp2/3 complex (dye-labelled) (S. cerevisiae) (UniProt P32381); test: single-molecule TIRF colocalisation; 649-biotin-SNAP-Arp2/3 complex anchored by streptavidin; 20 nM Abp1-SNAP-549 flowed in; no actin; 0.25 s intervals for 120 s
[5] = biological target: Abp1-SNAP (S. cerevisiae Abp1 with C-terminal SNAP-tag, dye-labelled) (S. cerevisiae) (UniProt P15891); test: single-molecule TIRF colocalisation; Abp1-SNAP-biotin-549 anchored by streptavidin; JF646-SNAP-Arp2/3 flowed in (10 nM in the results, 15 nM in the methods); no actin; 0.25 s intervals for 60 s
[6] = biological target: Rabbit skeletal muscle actin (filaments) (rabbit) (UniProt P68135); test: single-molecule TIRF colocalisation; as a1 with 0.5 µM Abp1 present; double exponential fit
[7] = biological target: Rabbit skeletal muscle actin (filaments) (rabbit) (UniProt P68135); test: single-molecule TIRF colocalisation; 10 nM JF646-SNAP-Arp2/3 on tethered, preformed unbranched OG-labeled actin filaments, no actin monomers, no Abp1; recorded at 0.15 s intervals; TIRF buffer pH 7.4; single exponential fit

For “Abp1 (S. cerevisiae, untagged after GST cleavage) (from UniProt P15891 1-592) (natural protein)”, the stoichiometry N (Abp1 per Arp2/3 complex) [1] was 2.
“Abp1-SNAP (S. cerevisiae Abp1 with C-terminal SNAP-tag, dye-labelled) (from UniProt P15891 1-592) (natural protein)” gave a lifetime of long-lived interactions at 220 nM total Abp1 [2] of 36 s, a percent of particles in the Class 1 Abp1-bound reconstruction [3] of 30% and an average lifetime [4] of 0.36 s.
“SNAP-tagged S. cerevisiae Arp2/3 complex (dye-labelled) (from UniProt P32381 1-391; P47117 1-449; P38328 1-384)” was tested, and the average dwell time [5] was 0.37 s, the lifetime of the longer-lived binding events with 0.5 µM Abp1 [6] was 2 s and the average lifetime on filament sides [7] was 0.37 s.
